From US20050112555A1, “Cytidine deaminase activators, deoxycytidine deaminase activators, Vif antagonists, and methods of screening for molecules thereof” (priority 2003, published 2005)
Read-outs that look alike come from different tables or passages of the source.

Legend:
vif− HIV-1 particles = type: cell-based
[1] = system: pseudotyped HIV-1 viral particles; type: cell-based; details: vs control 293T cells with pIRES-P vector
[2] = system: HIV-1 Gag-Pol mRNA (GP-RNA region); experiment: Northern blot of viral Gag-Pol poly A+ RNA abundance in 293T cells; type: cell-based; details: ΔVif vs Vif+ provirus, 293T-CEM15
HIV-1 GP-RNA = experiment: UV crosslinking RNA binding assay, HIV-1 GP-RNA; details: recombinant CEM15 1, 2 and 4 μg; 20 fmol radiolabeled GP-RNA
apoB RNA = experiment: UV crosslinking RNA binding assay, apoB RNA; details: recombinant CEM15; 20 fmol radiolabeled apoB RNA
HIV-1 p24 and RT protein = experiment: Western blot of HIV-1 proteins in proviral-transfected 293T cell lysates; type: cell-based; details: ΔVif proviral DNA, 72 h, vs control pIRES-P cells
[3] = system: reporter apoB mRNA site C6666; experiment: Poisoned primer extension editing assay of reporter apoB mRNA in yeast
[4] = overexpressed in yeast, late log phase growth with galactose feeding

B1: CEM15: human cytidine deaminase (APOBEC-3G) that reduces retroviral infectivity; HA-tagged, stably expressed in 293T cells or recombinant (protein)
chain: MKPHFRNTVERMYRDTFSYNFYNRPILSRRNTVWLCYEVKTKGPSRPPLDAKIFRGQVYSELKYHPEMRFFHWFSKWRKLHRDQEYEVTWYISWSPCTKCTRDMATFLAEDPKVTLTIFVARLYYFWDPDYQEALRSLCQKRDGPRATMKIMNYDEFQHCWSKFVYSQRELFEPWNNLPKYYILLHIMLGEILRHSMDPPTFTFNFNNEPWVRGRHETYLCYEVERMHNDTWVLLNQRRGFLCNQAPHKHGFLEGRHAELCFLDVIPFWKLDLDQDYRVTCFTSWSPCFSCAQEMAKFISKNKHVSLCIFTARIYDDQGRCQEGLRTLAEAGAKISIMTYSEFKHCWDTFVDHQGCPFQPWDGLDEHSQDLSGRLRAILQNQEN
modifications: left off: small tags and cut ends
notes: human cytidine deaminase (APOBEC-3G) that reduces retroviral infectivity; HA-tagged, stably expressed in 293T cells or recombinant
GFP expression from vif−, CEM15+ particles (vif− HIV-1 particles): indistinguishable from background fluorescence in control cells | decrease in Vif− viral infectivity (vif− HIV-1 particles): ≥ 100 fold | reduction of viral particle production ([1]; Vif+ provirus): 5 fold | reduction of viral particle production ([1]; ΔVif provirus (absence of Vif)): 100 fold | depletion of viral RNA levels ([2]; 24 h post-transfection): 2 fold | depletion of viral RNA levels ([2]; 48 h post-transfection): 9 fold | depletion of viral RNA levels ([2]; 72 h post-transfection): 56 fold | RNA binding (UV crosslinking) (HIV-1 GP-RNA): bound to radiolabeled HIV-1 GP-RNA in concentration dependent manner | RNA binding (UV crosslinking), yield of complexes compared with GP-RNA (apoB RNA): the yield of complexes was similar | HIV-1 p24 and RT protein abundance (HIV-1 p24 and RT protein): marked reduction

B2: CDA from E. coli: dimeric cytidine deaminase from E. coli, equivalent to PDB entry 1AF2 (protein, UniProt P0ABF6 1-294, looked up)
Cytidine deaminase: MHPRFQTAFAQLADNLQSALEPILADKYFPALLTGEQVSSLKSATGLDEDALAFALLPLAAACARTPLSNFNVGAIARGVSGTWYFGANMEFIGATMQQTVHAEQSAISHAWLSGEKALAAITVNYTPCGHCRQFMNELNSGLDLRIHLPGREAHALRDYLPDAFGPKDLEIKTLLMDEQDHGYALTGDALSQAAIAAANRSHMPYSKSPSGVALECKDGRIFSGSYAENAAFNPTLPPLQGALILLNLKGYDYPDIQRAVLAEKADAPLIQWDATSATLKALGCHSIDRVLLA
editing activity on reporter apoB mRNA (in words) ([3]; expressed in yeast): incapable of editing on the reporter substrate

B3: Cdd1: tetrameric cytidine deaminase from S. cerevisiae with RNA editing activity (protein, UniProt Q06549 1-142, looked up)
Cytidine deaminase: MKVGGIEDRQLEALKRAALKACELSYSPYSHFRVGCSILTNNDVIFTGANVENASYSNCICAERSAMIQVLMAGHRSGWKCMVICGDSEDQCVSPCGVCRQFINEFVVKDFPIVMLNSTGSRSKVMTMGELLPMAFGPSHLN
C to U editing of reporter apoB mRNA at site C6666 [3, 4]: 6.7% | editing level relative to negative control (empty vector) [3, 4]: ~10 ×
